The assay concerns the target GST tag (glutathione S-transferase affinity tag, free in the ATAD2B sample). Kind of assay: SEC; Superdex 200 Increase 10/300 GL on an ÄktaPrime system, ATAD2B sample from E. coli compared with a molecular weight standard mixture (thyroglobulin 670 kDa, ovalbumin 44 kDa). A general note: Size exclusion chromatography separates by hydrodynamic size, large species first.

Chain of GST tag (glutathione S-transferase affinity tag, free in the ATAD2B sample) (P08515 2-218): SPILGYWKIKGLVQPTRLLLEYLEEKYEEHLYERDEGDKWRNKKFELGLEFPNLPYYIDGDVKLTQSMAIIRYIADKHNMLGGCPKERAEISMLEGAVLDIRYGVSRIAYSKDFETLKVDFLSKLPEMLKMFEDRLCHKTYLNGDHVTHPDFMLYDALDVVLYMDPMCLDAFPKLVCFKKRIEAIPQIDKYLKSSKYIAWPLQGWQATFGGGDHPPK

As for “GST tag (glutathione S-transferase affinity tag, free in the ATAD2B sample) (natural protein)”, the stoichiometry N (usually the number of molecules, sites or subunits per partner or assembly) was 2.

The record behind these values is article doi:10.1101/2025.10.13.682238.
